Assays:
S. pneumoniae = assay: Adhesion of pneumococci to buccal cells; type: cell-based; settings: strain 6303
Protocol: Methods for handling polyphenol oxidase and asparaginase and for observing adhesion by microorganisms were generally as described in the previous Examples with variations to adapt these methods to these bacteria and to buccal cells. In particular, adhesion was measured in a manner similar to that just described for S. pyogenes.

Candida albicans = assay: Adhesion of Candida albicans to buccal cells; type: cell-based; settings: 37° C. 60 min, ave ±SE, 5 runs
[1] = system: E. coli possessing type 1 fimbriae; assay: Adhesion of E. coli to a mannose receptor; type: cell-based; settings: E. coli treated with asparaginase versus untreated cells
Protocol: Materials and methods were generally as described in the Examples above, but modified for observing adhesion by E. coli to a mannose receptor. […] The E. coli were then incubated with a source of mannose receptor.

F. nucleatum = assay: Hemagglutination assay of periodontopathogens, F. nucleatum; type: cell-based, Fusobacterium nucleatum; set-up: key: + Hemagglutination; − No hemagglutination; settings: sheep blood, polyphenol oxidase 90 U/ml or asparaginase 20 U/ml, 90 min
Protocol: The hemagglutinations were carried out in 96 microwell (Nunc) plates in which 50 μl of 1% suspension of sheep blood and 50 μl of serially diluted cells suspension in phosphate buffered (10 mM Na2HPO4, 10 mM KH2PO4, 150 mM NaCl, 3 mM KCl) were added. The cells were adjusted at 1.4 OD at 540 nm. All the strains were treated in NaCl-free buffer with polyphenol oxidase (90 U/ml) or asparaginase (20 U/ml) for 90 min at 37° C. before hemagglutination.

[2] = system: A. naeslundii ATCC 12104 (adhesin) / P. intermedia (receptor); assay: Coaggregation A. naeslundii ATCC 12104 / P. intermedia; settings: P. intermedia (receptor) enzyme treated; polyphenol oxidase 90 U/ml, asparaginase 20 U/ml
Protocol: S. sanguis 10556, A. naeslundii strains 12104 and T14V and E. coli were grown static cultures in Todd-Hewitt broth (BBL Microbiology Systems, Cockeysville, Md.). P. gingivalis W50, A. actinomycetemcomitans and C. ochracea were grown in brain heart infusion broth (BBL). F. nucleatum 22586 and P. intermedia 25611 were grown in modified Schaedler broth (BBL). All oral species except S. sanguis 10556 were incubated at 37° C. as static cultures under an anaerobic atmosphere containing H2, CO2 and N2(10:10:80) with GasPaks (BBL). S. sanguis was incubated at 37° C. as static cultures in 5% CO2.
Bacteria were harvested in the mid to late exponential growth phase by centrifugation (10,000×g for 10 min at 4° C.). The cells were washed twice in coaggregation buffer (30 mM 3-[N-morpholino]propanesulfonic acid (MOPS), pH 7.0) and adjusted to an optical density of 0.6-0.8 at 540 nm (1-cm path). […]
Coaggregation was assessed by turbidity changes. Following mixing of the cells for 10 s on a Vortex mixer, absorbance readings were made every 30 min. The percentage of coaggregation was calculated from the following formula: Percent coaggregation=[OD540(A)+OD540(B)−OD540(A+B)]/(OD540(A)+OD540(B)), where A is the control containing cells of one strain, B is the control containing cells of the other strain, and A+B is the reaction mixture containing both cells. […]

Influenza A strain H1N1 = assay: Hemagglutination of chicken erythrocytes by influenza virus; type: cell-based; settings: polyphenol oxidase 70 U/ml or asparaginase 10 U/ml; untreated 256
S. pyogenes = assay: Collagen binding assay, S. pyogenes; type: cell-based
Protocol: Wells were filled with 1 mg/ml soluble collagen overnight at 4° C. Control wells were coated with 1% BSA. The protein solutions were removed and permitted to stand at 37° C. for 1 h. A solution of 2% BSA was added to the wells to block unoccupied sites and prevent non-specific binding of bacteria. After 30 min, BSA was removed and the wells were washed once with distilled water. Finally, the bacterial suspensions (100 μl, OD 1.4) were added to the plates and incubated at 37° C. for 2 h. Unbound bacteria were removed by washing the wells three times with PBS containing 0.01% Tween 20. The wells were dried at 37° C. for 30 min and stained with crystal violet for 15 min. Wells were rinsed with distilled water and dried at 37° C. for 2 h. After adding 100 μl of 95% (v/v) ethanol to each well the plates were then shaken to release the stain and a reading of 550 nm was carried out.

P-fimbriated E. coli = assay: Flow cytometric adhesion of P-fimbriated E. coli to UECs; type: cell-based
Excerpt: Methods for handling polyphenol oxidase and asparaginase and for observing adhesion by microorganisms were generally as described in the previous Examples with variations to adapt these methods to epithelial cells.
The bacteria were labeled intracellularly with the fluorescein dye CFDA-SE. Median fluorescence intensity of the UECs was taken as a measure of the number of bacteria attached to them. In the Figures below, median fluorescence is converted to % adhesion using control conditions (UEC+untreated bacteria) as 100%.

[3] = system: P. aeruginosa culture supernatants; assay: Proteolytic activity of P. aeruginosa culture supernatants on azocoll; type: biochemical; settings: culture supernatants treated with 50 units/ml asparaginase
Bacillus cereus = assay: Growth inhibition of Bacillus cereus; type: cell-based
S. sanguis = assay: Adhesion of S. sanguis to saliva-coated hydroxylapatite beads; type: cell-based, Streptococcus sanguis; settings: polyphenol oxidase 100 μg/ml or 150 units; asparaginase 20 U/ml; 1 hr at 37° C.
Protocol: S. sanguis was grown and handled according to procedures known to those of skill in the art. Hydroxylapatite beads were coated with saliva and washed. Adhesion was measured using [^3H]thymidine labeled streptococci. Various cell densities were run but using a single 40 mg weight of beads.
The “cooperative” adhesion (loss of upward slope on the Scatchard plot) was absent following both enzyme treatments. Incubation of cells with enzymes was 1 hr at 37° C.

B1: asparaginase: enzyme that catalyzes hydrolysis of the side chain amide group of asparagine to a carboxyl group; E. coli asparaginase (protein, UniProt P00805 23-348, looked up)
L-asparaginase 2: LPNITILATGGTIAGGGDSATKSNYTVGKVGVENLVNAVPQLKDIANVKGEQVVNIGSQDMNDNVWLTLAKKINTDCDKTDGFVITHGTDTMEETAYFLDLTVKCDKPVVMVGAMRPSTSMSADGPFNLYNAVVTAADKASANRGVLVVMNDTVLDGRDVTKTNTTDVATFKSVNYGPLGYIHNGKIDYQRTPARKHTSDTPFDVSKLNELPKVGIVYNYANASDLPAKALVDAGYDGIVSAGVGNGNLYKSVFDTLATAAKTGTAVVRSSRVPTGATTQDAEVDDAKYGFVASGTLNPQKARVLLQLALTQTKDPQQIQQIFNQY
adhesion of S. pneumoniae to buccal cells (S. pneumoniae): able to reduce adhesion | Candida/buccal cell (Candida albicans; cells, 20 U/ml, control 9.0 ± 3.5): 7.0 ± 2 | Candida/buccal cell (Candida albicans; cells, 60 U/ml, control 9.0 ± 3.5): 4.5 ± 1.5 | Candida/buccal cell (Candida albicans; hyphae, 20 U/ml, control 5.1 ± 3.1): 3.1 ± 2.0 | Candida/buccal cell (Candida albicans; hyphae, 60 U/ml, control 5.1 ± 3.1): 1.3 ± 1.2 | binding to the mannose receptor [1]: reduced binding | Hemagglutination (F. nucleatum; dilution 1/2): + | Hemagglutination (F. nucleatum; dilution 1/8): + | Hemagglutination (F. nucleatum; dilution 1/16): + | Hemagglutination (F. nucleatum; dilution 1/32): + | Hemagglutination (F. nucleatum; dilution 1/64): + | Hemagglutination (F. nucleatum; dilution 1/128): − | Hemagglutination (F. nucleatum; dilution 1/256): − | Hemagglutination (F. nucleatum; dilution 1/512): − | Inhibition % of coaggregation [2]: 23% | Hemagglutination Titers, Dilution of Virus + RBCs (fold) (Influenza A strain H1N1): 64 fold | Absorbance (collagen) (S. pyogenes; S. pyogenes M4, untreated 0.19): 0.10 | Absorbance (collagen) (S. pyogenes; S. pyogenes M24, untreated 0.31): 0.13 | decrease in adhesion to UECs (P-fimbriated E. coli; asparaginase 2.5 units/ml): 45% | decrease in adhesion to UECs (P-fimbriated E. coli; asparaginase 5 units/ml): 55% | decrease in adhesion to UECs (P-fimbriated E. coli; asparaginase 25 units/ml): 85% | adhesion to UECs (P-fimbriated E. coli; bacteria first incubated with globoside, then polyphenol oxidase 282 units/ml or asparaginase 5 units/ml): nearly the same as that of untreated bacteria | proteolytic activity on azocoll [3]: markedly reduced proteolytic activity | inhibition of growth of Bacillus cereus (Bacillus cereus): did not significantly inhibit growth | adhesion to hydroxylapatite (S. sanguis): reduced adhesion

Reference: patent publication US20020009436A1, “Methods and compositions for inhibiting adhesion by microorganisms” (priority 1999, published 2002)
